Publication PMC5491184

Experiments:
[1] = biological target: NHERF3 (endogenous, Caco-2/bbe) (UniProt Q5T2W1); test: HA-NHE3 IP, LC-MS/MS spectral counts; conditions: reference: NHE3 wild type; sites S719
[2] = biological target: ezrin (UniProt P15311); test: HA-NHE3 IP, LC-MS/MS spectral counts; conditions: reference: NHE3 wild type; sites S719

Q: What does the source list for NHE3 (from UniProt P26432) NHE3-S719A?
A: other: normalized exclusive spectrum count [1]: weaker; reference 4; other: normalized exclusive spectrum count [2]: weaker; reference 8
